Laboratory results taken from US20230287402A1 (University of Washington, published 2023).

B1: A(d)mScarlet, dihedral A component with N-terminal mScarlet (A_n_mScarlet) (designed binder)
chain: NKIHGSHHHHHHGSTSGSAMVSKGEAVIKEFMRFKVHMEGSMNGHEFEIEGEGEGRPYEGTQTAKLKVTKGGPLPFSWDILSPQFMYGSRAFTKHPADIPDYYKQSFPEGFKWERVMNFEDGGAVTVTQDTSLEDGTLIYKVKLRGTNFPPDGPVMQKKTMGWEASTERLYPEDGVLKGDIKMALRLKDGGRYLADFKTTYKAKKPVQMPGAYNVDRKLDITSHNEDYTVVEQYERSEGRHSTGGMDELYKGGSGGSLALVATGNDTTTKPDLYYLKNSEAINSLALLPPPPAVGSIAFLNDQAMYEQGRLLRNTERGKLAAEDANLSSGGVANAFSGAFGSPITEKDAPALHKLLTNMIEDAGDLATRSAKDHYMRIRPFAFYGVSTCNTTEQDKLSKNGSYPSGHTSIGWATALVLAEINPQRQNEILKRGYELGQSRVICGYHWQSDVDAARVVGSAVVATLHTNPEFQAQLIKAKIEFKQHQK
notes: also called AmScarlet
B2: A component of design #13 (D3 homooligomer, designed from 1d2t) (designed binder)
chain: MGHHHHHHGGLALVATGNDTTTKPDLYYLKNSEAINSLALLPPPPAVGSIAFLNDQAMYEQGRLLRNTERGKLAAEDANLSSGGVANAFSGAFGSPITEKDAPALHKLLTNMIEDAGDLATRSAKDHYMRIRPFAFYGVSTCNTTEQDKLSKNGSYPSGHTSIGWATALVLAEINPQRQNEILKRGYELGQSRVICGYHWQSDVDAARVVGSAVVATLHTNPEFQAQLIKAKIEFKQHQKEL
notes: also called component A; dihedral A

Key:
[1] = target: T1, B(c)GFP, cyclic B component with C-terminal GFP (Di13BLB_C_GFP); assay: quantitative fluorescence microscopy of preformed arrays
[2] = target: T1, B(c)GFP, cyclic B component with …; assay: calibrated microscope, corrected for FRET between GFP and mScarlet
[3] = target: T1, B(c)GFP, cyclic B component with …; assay: stepwise array assembly on NIH/3T3 cells

Row | Binder | mScarlet/GFP fluorescence ratio (arrays formed in vitro) [1] | A/B ratio of arrays generated on cells [2] | binding result [3]
1 | B1 | 1.45 | 0.99 | –
2 | B2 | – | – | binds
